Here are results for five substances from patent US20020004485A1.

In assay [1] the target is MC receptor endogenous to Xenopus laevis melanophores (Xenopus laevis). The assay can be described thus: Schild plot; antagonism of α-MSH pigment dispersion in Xenopus melanophores (functional).
For assay [2], the target named is atypical MC receptor of Cos-7 cells. The assay can be described thus: estimated from the shift of the α-MSH cAMP curve in Cos-7 cells (functional).
The target of assay [3] is human MCR-1 receptor (human) (UniProt Q01726). The assay is described as follows: cell-based or functional assay.
The target of assay [4] is MC receptor endogenous to Xenopus laevis melanophores (Xenopus laevis). The assay can be described thus: cell-based or functional assay.
Assay [5] addresses human MCR-4 receptor (human) (UniProt P32245). The assay is described as follows: cell-based or functional assay.
Assay [6] has as its target atypical MC receptor of Cos-7 cells. The assay is described as follows: cell-based or functional assay.
Assay [7] addresses human MCR-3 receptor (human) (UniProt P41968). The assay can be described thus: cell-based or functional assay.
In assay [8] the target is ACTH (MCR-2) receptor endogenous to murine Y1 adrenocortical cells (murine) (UniProt Q64326). The assay can be described thus: cell-based or functional assay.
ACTH (MCR-2) receptor endogenous to murine Y1 adrenocortical cells (murine), sequence (Q64326 whole entry): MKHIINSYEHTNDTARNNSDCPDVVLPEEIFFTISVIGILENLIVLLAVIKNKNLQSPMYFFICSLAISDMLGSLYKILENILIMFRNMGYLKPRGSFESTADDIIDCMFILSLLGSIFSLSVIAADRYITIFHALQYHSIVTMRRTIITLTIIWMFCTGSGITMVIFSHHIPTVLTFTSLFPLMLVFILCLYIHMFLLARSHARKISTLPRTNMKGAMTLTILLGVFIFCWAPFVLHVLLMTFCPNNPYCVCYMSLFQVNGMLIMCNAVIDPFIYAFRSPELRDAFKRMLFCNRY

human MCR-1 receptor (human), sequence (Q01726 whole entry): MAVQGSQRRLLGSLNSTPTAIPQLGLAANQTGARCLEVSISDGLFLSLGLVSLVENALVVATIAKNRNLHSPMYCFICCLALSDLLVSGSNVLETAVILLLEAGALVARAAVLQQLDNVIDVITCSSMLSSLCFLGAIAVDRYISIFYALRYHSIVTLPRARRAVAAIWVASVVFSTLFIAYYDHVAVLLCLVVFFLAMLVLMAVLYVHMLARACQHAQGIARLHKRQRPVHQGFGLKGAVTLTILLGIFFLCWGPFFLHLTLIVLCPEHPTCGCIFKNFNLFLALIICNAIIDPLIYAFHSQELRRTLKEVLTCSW
human MCR-3 receptor (human), sequence (P41968 whole entry): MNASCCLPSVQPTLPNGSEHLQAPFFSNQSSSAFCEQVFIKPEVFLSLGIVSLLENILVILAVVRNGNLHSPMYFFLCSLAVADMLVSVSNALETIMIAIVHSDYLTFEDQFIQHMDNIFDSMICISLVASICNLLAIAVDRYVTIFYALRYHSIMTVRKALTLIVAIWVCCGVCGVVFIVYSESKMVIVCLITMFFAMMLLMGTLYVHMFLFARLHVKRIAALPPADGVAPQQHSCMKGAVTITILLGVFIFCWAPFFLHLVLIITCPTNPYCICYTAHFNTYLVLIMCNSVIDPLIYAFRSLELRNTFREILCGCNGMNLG
human MCR-4 receptor (human), sequence (P32245 whole entry): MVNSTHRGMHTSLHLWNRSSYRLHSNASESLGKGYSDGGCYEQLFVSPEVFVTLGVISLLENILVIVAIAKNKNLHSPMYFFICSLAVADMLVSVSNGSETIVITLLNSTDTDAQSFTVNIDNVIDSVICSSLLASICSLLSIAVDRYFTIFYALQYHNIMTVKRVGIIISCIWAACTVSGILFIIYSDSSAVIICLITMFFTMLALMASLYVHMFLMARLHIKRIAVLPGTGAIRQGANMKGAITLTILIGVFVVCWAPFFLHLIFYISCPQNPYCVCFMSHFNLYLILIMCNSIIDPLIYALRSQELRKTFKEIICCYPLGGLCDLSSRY

The term Ki denotes the equilibrium dissociation constant of an inhibitor or competing ligand from its target. Low readings indicate tighter binding, high ones weaker binding. What is called Kd is the concentration at which binding is half-saturated. Take “dynorphin A(1-13)-NH2 (from UniProt P01213 207-219) (peptide)”: in assay [1], the Ki came to 0.071 µM. For the same substance, the Kd in assay [2] is 1 µM. In addition, the EC50 of α-MSH in the presence of 30 µM dynorphin A(1-13)-NH2, MCR-1 in assay [3] came to 2.1 µM. In addition, the IC50 nM in Frog Melanophore Assay in assay [4] was 145 nM. Besides, the EC50 of α-MSH in the presence of 30 µM dynorphin A(1-13)-NH2, MCR-4 in assay [5] came out at 2 µM. Further, the fold shift of the α-MSH EC50 by 30 µM dynorphin A(1-13)-NH2 in assay [6] is 50 fold. Also, the EC50 of α-MSH in the presence of 30 µM dynorphin A(1-13)-NH2, MCR-3 in assay [7] amounted to 1.6 µM.

With “dynorphin A(2-13) (from UniProt P01213 176-187) (peptide)”, in assay [1], the Ki is 0.079 µM. Moreover, in assay [3], the dose ratio of α-MSH dose-response curves with and without 30 µM dynorphin A(2-13), MCR-1 came out at 250. In addition, in assay [8], the EC50 of ACTH-(1-24) in the presence of 30 µM dynorphin A(2-13) came to 0.028 µM and the fold shift to the right of the concentration-response curve of ACTH-(1-24) at 30 µM worked out at 15 fold. Besides, the dose ratio of α-MSH dose-response curves with and without 30 µM dynorphin A(2-13), MCR-4 in assay [5] was determined as 147. The dose ratio of α-MSH dose-response curves with and without 30 µM dynorphin A(2-13), MCR-3 in assay [7] came to 128.

Take “neurotensin(8-13) analog, D-Arg-Arg-Pro-Trp-Ile-Leu (peptide)”: in assay [4], the IC50 in the frog MCR assay was greater than 10 µM.

In general, pKi refers to the negative decadic logarithm of the Ki, by convention in mol/L. Low readings indicate a high Ki, high ones a low Ki. In assay [1], “p-anisoyl-[D-Arg^6,9, D-Lys^11, D-Leu^12] dynorphin A(6-12)-NH2 (peptide)” yielded an inhibitory constant (Ki) of 0.012 µM and a pKi of 7.91.

urocortin (peptide) came in with an IC50 in the frog MCR assay in assay [4] greater than 10 µM.
